Data from article PMC9701223, “GOLPH3 protein controls organ growth by interacting with TOR signaling proteins in Drosophila” (Cell Death & Disease, 2022).

T1: GST-Lst8 (Drosophila melanogaster, UniProt Q9W328 1-313)
T1 construct: Lst8 (lethal with SEC13 protein 8), Drosophila melanogaster; full-length cDNA cloned into pGEX-6p-2; Held on glutathione beads as bait; source: E. coli ArcticExpress (DE3), purified on glutathione-Sepharose 4B beads
T1 sequence (looked up): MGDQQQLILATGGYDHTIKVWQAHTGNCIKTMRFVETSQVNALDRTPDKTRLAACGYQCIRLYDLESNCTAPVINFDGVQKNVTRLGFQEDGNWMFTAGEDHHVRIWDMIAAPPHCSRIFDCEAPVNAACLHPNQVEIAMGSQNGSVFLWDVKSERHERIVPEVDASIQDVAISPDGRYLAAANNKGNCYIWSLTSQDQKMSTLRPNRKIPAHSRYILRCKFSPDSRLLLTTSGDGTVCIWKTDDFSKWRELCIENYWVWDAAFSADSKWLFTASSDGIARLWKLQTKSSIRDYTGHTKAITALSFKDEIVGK

B1: 6XHis-dGOLPH3 (natural protein, Drosophila melanogaster, UniProt Q9VQ93 1-294, looked up)
chain: MNRSDGLVRRSVKPRENGGAEGGLNANTPDDNQDALDNLKDQEDNIDDGDSKETRLTLMEEVLLLGLKDKEGYTSFWNDCISSGLRGCILIELGLRGRVMIEKSGMRRRGLCTRKLILKSDQQTGDVLLDEALKHIKETDPPETVQSWIEYLSGETWNPLKLRYQLKNVRERLAKNLVEKGVLTTEKQNFLLFDMTTHPLSDNVVKCRLVKKIQDSVLSKWVNDPQRMDKRMLALIFLAHASDVIENAFAPLNDDDYEVAMKRVRELLDLDFEAESAKPNANEILWAVFMAFTK
notes: Golgi phosphoprotein 3 (dGOLPH3), Drosophila melanogaster; source: bacterially expressed
B2: GST-Tctp (Drosophila Translationally controlled tumor protein) (natural protein, Drosophila melanogaster, UniProt Q9VGS2 1-172, looked up)
chain: MKIYKDIITGDEMFADTYKMKLVDDVIYEVYGKLITRQGDDIKLEGANASAEEADEGTDITSESGVDVVLNHRLTECFAFGDKKSYTLYLKDYMKKVLAKLEEKSPDQVDIFKTNMNKAMKDILGRFKELQFFTGESMDCDGMVALVEYREINGDSVPVLMFFKHGLEEEKC
notes: Translationally controlled tumor protein (Tctp), Drosophila melanogaster; full-length cDNA cloned into pGEX-6p-2; Held on glutathione beads as bait; source: E. coli BL21-Codon Plus, purified on glutathione-Sepharose 4B beads

Columns and labels:
GST-Lst8 = target: T1, GST-Lst8; assay: pull-down; direct interaction assay: bacterially expressed 6XHis-dGOLPH3 incubated with GST or GST-tagged proteins on glutathione-Sepharose 4B beads, 1 h, 4 °C; wash 25 mM Tris-HCl pH 7.4, 150 mM NaCl, 1% NP-40, 1 mM EDTA; western blot; conditions: both partners purified
6XHis-dGOLPH3 = target: B1; assay: as above; conditions: both partners purified

Row | binding result (GST-Lst8) | binding result (6XHis-dGOLPH3) | Binder
1 | binds |  | B1
2 |  | binds | B2
